Reference: patent US9587002B2, “Sequence of nucleotides and peptides GSE 24.2 of dyskerin, which can induce telomerase activity, method for obtaining same, therapeutic compositions and applications thereof” (CONSEJO SUPERIOR DE INVESTIGACIONES CIENTIFICAS, priority 2005, dated 2017)

Key:
hTERT = test: RT-PCR expression of hTERT in 293T cell lines after cisplatin; format: cell-based, human; details: pre-treated 0.5 μg/ml, treated 3 μg/ml cisplatin for 3 and 7 days
Experimental: FIG. 7.—Expression levels of different genes related to telomerase in 293T cells: pLNCX and 24.2 following treatment with cisplatin. The cells were seeded in 60-mm plates, treated with 3 μg/ml of cDDP following pre-treatment with 0.5 μg/ml of cisplatin for 3 days and, subsequently, collected at the times specified in the figure (3 and 7 days). Following the extraction of RNA, RT-PCR was performed with oligos specific for hTERT, hTR and dyskerin in order to study the expression levels of the messenger RNAs. As a starting RNA control, oligos for the amplification of GAPDH were used.
One of the explanations for the lower sensitivity of pLNCX 24.2 cells to cisplatin could be a change in the levels of some of the components of the telomerase complex. Therefore, the expression levels of different genes involved in the telomerase complex and the effect that cisplatin had on their expression were studied. To this end, the pLNCX and pLNCX 24.2 cells were pre-treated with 0.5 μg/ml and treated with 3 μg/ml of cisplatin for 3 and 7 days. Using oligos specific for hTR, hTERT and dyskerin, the expression levels of these genes and the effect of cisplatin on said expression were studied. […] This change in the sensitivity to cisplatin could explain, at least partially, the difference in sensitivity in the telomerase activity assays.
Expression of genes by RT-PCR. […]

hTR = test: RT-PCR of hTR in VA13 cells; format: cell-based; details: transient transfection
Experimental: FIG. 10.—Telomerase activity and expression levels of hTERT and hTR in the cells of patients with dyskeratosis congenita and in VA13 cells transiently transfected with the 24.2 plasmid or the pLNCX empty vector. A) Telomerase activity measured by means of the TRAP assay in the cells of patients with dyskeratosis congenita (DC-1, DC-2 and DC-3) and in the carrier parent (DC-C) following electroporation of 45 μg of the pLNCX empty plasmid (−) or the pLNCX 24.2 vector (+) by 15 million cells. B) RT-PCR of the RNA from cells of one of the patients with dyskeratosis congenita, DC3 transfected with the empty vector and DC3 transfected with the 24.2 plasmid, using oligos specific for hTERT and hTR. As a starting RNA control, oligos for the amplification of GAPDH were used. C) Telomerase activity in VA13 cells. The cells were transiently transfected with 16 μg of the control pLNCX empty vector, expressing DKC or the GSE 24.2 peptide per million cells. 24 hours later, the telomerase activity was analysed as described above, using dilutions of the protein extracts from each transfection. D) The expression levels of hTERT and hTR in VA13 cells transfected with 16 μg of the different construct per million cells. RNA levels were detected as described above. GAPDH was used as a control. […] After 24 h of transfection, the luciferase activity was analyzed as described above. […]

telomerase = telomerase (Homo sapiens, UniProt O14746); test: Telomerase activity (TRAP) of 293T cell lines treated with cisplatin; format: cell-based; design: endogenous in cells; host or cells: 293T cells stably transfected with empty pLNCX or pLNCX 24.2; details: pre-treated 0.5 μg/ml 3 days, then 3 μg/ml cisplatin for 7 days
Sequence of telomerase (O14746 whole entry): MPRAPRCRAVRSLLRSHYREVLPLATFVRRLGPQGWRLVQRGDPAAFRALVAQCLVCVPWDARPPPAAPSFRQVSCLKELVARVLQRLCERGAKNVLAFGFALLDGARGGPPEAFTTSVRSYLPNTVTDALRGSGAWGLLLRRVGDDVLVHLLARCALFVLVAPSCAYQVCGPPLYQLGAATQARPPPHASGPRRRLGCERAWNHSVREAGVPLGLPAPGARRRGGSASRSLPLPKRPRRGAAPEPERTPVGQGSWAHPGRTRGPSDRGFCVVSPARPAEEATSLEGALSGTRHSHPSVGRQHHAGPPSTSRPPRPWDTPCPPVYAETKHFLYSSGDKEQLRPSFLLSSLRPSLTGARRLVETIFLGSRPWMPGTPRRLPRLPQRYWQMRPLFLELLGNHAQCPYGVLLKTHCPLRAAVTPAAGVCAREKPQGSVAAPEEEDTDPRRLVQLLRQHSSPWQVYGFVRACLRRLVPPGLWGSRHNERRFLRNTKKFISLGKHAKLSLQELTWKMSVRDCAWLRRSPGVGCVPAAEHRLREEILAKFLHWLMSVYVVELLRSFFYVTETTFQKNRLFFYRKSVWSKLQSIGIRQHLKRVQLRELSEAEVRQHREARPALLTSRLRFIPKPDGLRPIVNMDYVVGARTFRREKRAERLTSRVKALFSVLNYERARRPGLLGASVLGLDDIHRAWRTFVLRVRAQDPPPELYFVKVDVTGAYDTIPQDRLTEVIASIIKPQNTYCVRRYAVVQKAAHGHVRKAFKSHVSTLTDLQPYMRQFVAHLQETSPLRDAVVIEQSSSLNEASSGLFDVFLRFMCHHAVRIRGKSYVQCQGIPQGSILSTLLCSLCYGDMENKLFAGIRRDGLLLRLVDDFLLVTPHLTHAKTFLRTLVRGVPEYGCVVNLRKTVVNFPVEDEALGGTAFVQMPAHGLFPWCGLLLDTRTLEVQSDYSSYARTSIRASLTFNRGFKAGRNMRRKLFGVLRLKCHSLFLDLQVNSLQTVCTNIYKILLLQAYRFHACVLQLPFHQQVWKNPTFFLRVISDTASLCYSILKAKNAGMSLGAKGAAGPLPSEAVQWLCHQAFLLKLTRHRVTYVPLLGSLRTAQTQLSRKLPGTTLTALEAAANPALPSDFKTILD
Sequence of telomerase (O60832 2-514 partner limits assumed): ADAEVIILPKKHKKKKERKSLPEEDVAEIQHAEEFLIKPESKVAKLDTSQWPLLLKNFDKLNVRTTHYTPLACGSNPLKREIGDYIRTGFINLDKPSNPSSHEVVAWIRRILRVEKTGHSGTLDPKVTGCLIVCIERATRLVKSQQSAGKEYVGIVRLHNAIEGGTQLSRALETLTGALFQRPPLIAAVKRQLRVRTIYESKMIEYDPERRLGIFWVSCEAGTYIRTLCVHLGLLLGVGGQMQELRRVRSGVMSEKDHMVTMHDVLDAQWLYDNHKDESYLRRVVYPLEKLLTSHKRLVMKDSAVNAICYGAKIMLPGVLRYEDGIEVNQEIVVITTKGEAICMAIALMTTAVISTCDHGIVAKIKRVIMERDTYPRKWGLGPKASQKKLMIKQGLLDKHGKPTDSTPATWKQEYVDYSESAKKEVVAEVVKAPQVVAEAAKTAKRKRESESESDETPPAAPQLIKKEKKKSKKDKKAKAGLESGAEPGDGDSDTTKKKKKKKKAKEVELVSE
Sequence of telomerase (Q9NPE3 whole entry partner): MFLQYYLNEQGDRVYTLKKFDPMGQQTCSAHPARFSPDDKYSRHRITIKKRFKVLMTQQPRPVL
Sequence of telomerase (Q9NX24 whole entry partner): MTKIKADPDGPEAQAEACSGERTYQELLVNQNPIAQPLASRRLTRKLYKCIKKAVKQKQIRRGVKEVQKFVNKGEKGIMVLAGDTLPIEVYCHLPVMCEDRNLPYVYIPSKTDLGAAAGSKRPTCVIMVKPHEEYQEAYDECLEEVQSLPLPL
Sequence of telomerase (Q9NY12 whole entry partner): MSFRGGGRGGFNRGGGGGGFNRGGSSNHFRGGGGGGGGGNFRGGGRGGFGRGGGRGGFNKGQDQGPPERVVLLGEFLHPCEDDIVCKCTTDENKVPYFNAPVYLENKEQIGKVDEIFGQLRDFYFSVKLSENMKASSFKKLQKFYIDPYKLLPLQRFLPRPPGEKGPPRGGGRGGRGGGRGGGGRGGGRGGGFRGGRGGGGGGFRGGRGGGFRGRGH
Sequence of telomerase (Q9BUR4 whole entry partner): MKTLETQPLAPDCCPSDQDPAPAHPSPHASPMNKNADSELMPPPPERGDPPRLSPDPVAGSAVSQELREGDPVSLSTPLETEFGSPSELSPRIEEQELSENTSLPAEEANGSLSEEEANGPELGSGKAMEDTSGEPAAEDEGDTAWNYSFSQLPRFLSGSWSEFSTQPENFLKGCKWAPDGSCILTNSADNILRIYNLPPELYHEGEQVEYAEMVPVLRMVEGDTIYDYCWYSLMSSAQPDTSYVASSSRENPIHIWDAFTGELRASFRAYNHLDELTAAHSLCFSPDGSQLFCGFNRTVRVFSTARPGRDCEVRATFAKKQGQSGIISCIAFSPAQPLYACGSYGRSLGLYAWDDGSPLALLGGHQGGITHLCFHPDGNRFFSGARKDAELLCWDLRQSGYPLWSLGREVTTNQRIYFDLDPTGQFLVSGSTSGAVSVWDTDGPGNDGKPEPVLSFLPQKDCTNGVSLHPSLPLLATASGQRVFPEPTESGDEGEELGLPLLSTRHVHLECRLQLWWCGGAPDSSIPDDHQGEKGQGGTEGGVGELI
Experimental: FIG. 5.—Telomerase activity of the 293T cell lines: pLNCX and 24.2 following treatment with cisplatin. The cells were seeded in 60-mm plates, pre-treated with 0.5 μg/ml of cisplatin for 3 days and subsequently treated with cisplatin at a dose of 3 μg/ml […]. The telomerase activity was measured by means of the Intergen TRAPeze assay. The experiment was performed 3 times, with similar results.
To this end, an assay of telomerase activity was performed using the TRAP method with the pLNCX and pLNCX 24.2 cell lines (FIG. 5), pre-treating them for 3 days with 0.5 μg/ml of cisplatin; subsequently, they were treated with 3 μg/ml of cisplatin for 3 and 7 days. […]
Telomerase activity assay based on the TRAP method Wright et al., 1995). The telomerase activity was measured using the TRAPeze telomerase detection kit (Intergen) in accordance with the instruction manual. The protein concentration of each extract was quantified by means of the Bradford method using the BIORAD reagent and after performing a PCR in accordance with the manual instructions; polyacrylamide gel electrophoresis was performed with the reaction products under non-denaturing conditions and, subsequently, it was stained with Ethidium bromide for 30 minutes.

B1: GSE 24.2: 165-pb cDNA fragment (nucleotides 268 to 433) of human dyskerin, SEQ ID NO1, encoding peptide SEQ ID NO2, expressed from pLNCX plasmid (nucleic acid, listed as Homo sapiens)
DNA: GGTTTCATTAATCTTGACAAGCCCTCTAACCCCTCTTCCCATGAGGTGGTAGCCTGGATTCGACGGATACTTCGGGTGGAGAAGACAGGGCACAGTGGTACTCTGGATCCCAAGGTGACTGGTTGTTTAATCGTGTGCATAGAACGAGCCACTCGCTTGGTGAAG
modifications: expressed from pLNCX plasmid; CDS (1)..(165) Sequence GSE 24.2
- hTERT expression after cisplatin in pLNCX 24.2 cells (hTERT): no reduction in expression in the pLNCX 24.2 cells until 7 days of treatment
- expression of hTR RNA in VA13 cells (hTR): capable of recovering
- inhibition of telomerase activity by cisplatin in 24.2 cell line (telomerase): no inhibition was observed
